Data reported in patent US20110195072A1, “NON-NEUROENDOCRINE CANCER THERAPY” (priority 2006, published 2011).

B1: GDNF: glial-derived neurotrophic factor, specific ligand of Ret (450-10, PeProTech) (protein, UniProt P39905 78-211, looked up)
Glial cell line-derived …: SPDKQMAVLPRRERNRQAAAANPENSRGKGRRGQRGKNRGCVLTAIHLNVTDLGLGYETKEELIFRYCSGSCDAAETTYDKILKNLSRNRRLVSDKVGQACCRPIAFDDDLSFLDDNLVYHILRKHSAKRCGCI
modifications: recombinant, PeProTech

What was measured:
Type in all cases: cell-based, human
[1] = system: MCF7 cells; test: GDNF-induced Erk (MAPK) activation after siRNA transfection, immunoblot; conditions: 72 hrs after siRNA transfection, 10 ng/ml GDNF for 10 min
Experimental: (§1) MCF7 and T47D cells are seeded at 5×10^5/4 ml in 6 cm plates for 24 hrs. Cells are transfected with siRNAs targeting Ret (siRet1: […] siRet2: […]; Qiagen) or a control siRNA targeting LacZ ([…]) using Oligofectamine (12252-011, Invitrogen) and HiPerFect, respectively. After 72 hrs, cells are stimulated with 10 ng/ml GDNF alone (for 10 min in MCF7) or together with 100 ng/ml GFRα1 (for 30 min in T47D; rhGFRα1/Fc chimera 714-GR, R&D Systems), extracted and resolved by 12.5% SDS-PAGE electrophoresis and immunoblot analysis is performed using rabbit polyclonal antibodies against Erk (MAPK) and phospho-Erk (p-MAPK: see FIG. 7).

[2] = system: T47D cells; test: as above; conditions: 72 hrs after siRNA transfection, 10 ng/ml GDNF with 100 ng/ml GFRα1 for 30 min
Experimental: as §1

[3] = system: Ret; test: Ret expression after siRNA transfection (Western blot and PCR) in MCF7 cells; conditions: 20 nM siRNA
Experimental: MCF7 cells are seeded at a density of 10^5 cells/well in 6 well plates. 24 hours after seeding, cells are transfected with control lacZ siRNA or Ret siRNA (Qiagen, 96165/96166) at a final siRNA concentration of 20 nM using HiPerFect transfection reagent (Qiagen, 301705). siRNA targeting sequences are as following:
Ret9 and Ret51 protein expression is analyzed 72 hours post siRNA transfection using polyclonal antibodies from Santa Cruz (C-19 against Ret9: sc-167; C-20 against Ret51: sc-1290) and direct Western Blot analysis with 50 μg of total protein extract (FIG. 2 Panel A). […] As a control, total RNA is extracted in a parallel experiment (RNeasy, 74104, Qiagen). First-strand cDNA is synthesized using SuperScript III First-Strand Synthesis System for RT-PCR (Invitrogen, 18080-051), using random hexamer primers.

[4] = system: MCF7 cells; test: GDNF stimulation of Erk and JNK/SAPK phosphorylation, immunoblot; conditions: 100 ng/ml GDNF, 5 min to 8 hrs
Experimental: (§2) MCF7 and T47D cells are seeded at 3×10^6/15 ml and 3×10^6/10 ml in 15 and 10 cm plates for 2 days respectively. Cells are serum deprived (0.1% FCS) for 16 to 24 hrs or refed with normal medium. Cells are stimulated with 100 ng/ml GDNF (450-10, PeProTech) for 5, 10, 20, or 30 min 1, 4 or 8 hrs. Cell extracts are resolved by 10 or 12.5% SDS-PAGE electrophoresis and immunoblot analysis is performed using rabbit polyclonal antibodies raised against Erk (MAPK: 9102, Cell Signaling Technology) phospho-Erk (P-MAPK: […]; 9101) JNK/SAPK (9251) and phospho-JNK/phospho-SAP (Thr183/Tyr185; 9252) (see FIG. 6).

[5] = system: T47D cells; test: as above; conditions: 100 ng/ml GDNF, 5 min to 8 hrs
Experimental: as §2

[6] = system: MCF7 cells; test: Soft agar colony assay (anchorage-independent proliferation); conditions: 10 or 100 ng/ml GDNF alone, every week for 4 weeks
Experimental: (§3) MCF7 and T47D cells are treated with 10 or 100 ng/ml GDNF alone (MCF7) or together with 100 ng/ml GFRα1 (T47D) for 10 to 20 min in suspension and subsequently seeded at 10^5/2 ml in 6-well plates in a soft agar layer. Cells are treated again with GDNF alone or together with GFRα1 every week for 4 weeks in fresh medium. Colonies are stained with nitrotetrazolium blue and counted (Artek counter 880, Dynatech Laboratories).

[7] = system: T47D cells; test: as above; conditions: 10 or 100 ng/ml GDNF with 100 ng/ml GFRα1, every week for 4 weeks
Experimental: as §3

[8] = system: MCF7 cells; test: Anchorage-independent cell proliferation (polyheme assay); conditions: 10 ng/ml GDNF alone for 4 days, polyheme-coated plates
Experimental: (§4) MCF7 and T47D cells are seeded at 5×10^5/4 ml in 6 cm plates coated with polyheme (P3932, Sigma) to prevent adhesion of the cells to the substratum. Cells are treated with 10 ng/ml GDNF alone (MCF7) or together with 100 ng/ml GFRα1 (T47D) for 4 days. Cells were collected, trypsinized and counted (Vi-cell XR, Beckman Coulter).
(§5) MCF7 and T47D cells are seeded at 10^6/4 ml in 6 cm plates coated with polyheme. Cells are pretreated with 100 nM of a Ret inhibitor [repeat name of compound from earlier] or the vehicle DMSO for 1 hr, and then treated with 10 ng/ml GDNF alone (MCF7) or together with 100 ng/ml GFRα1 (T47D) for 4 days. Cells are collected, trypsinized and counted (Vi-cell XR, Beckman Coulter).

[9] = system: T47D cells; test: as above; conditions: 10 ng/ml GDNF with 100 ng/ml GFRα1 for 4 days, polyheme-coated plates
Experimental: as §4, §5

Row | Molecule | GDNF-induced activation of Erk (MAPK) [1] | GDNF-induced activation of Erk (MAPK) [2] | Ret9 protein expression (Western blot signal) ([3]; 72 hours post transfection, antibody C-19) | Ret51 protein expression (Western blot signal) ([3]; 72 hours post transfection, antibody C-20) | Ret mRNA expression (PCR) ([3]; parallel experiment) | phosphorylation of Erk [4] | phosphorylation of JNK/SAPK [4] | phosphorylation of Erk [5] | phosphorylation of JNK/SAPK [5] | number of colonies in soft agar [6] | number of colonies in soft agar [7] | anchorage-independent cell proliferation (cell count) [8] | anchorage-independent cell proliferation (cell count) [9]
1 | siRet1: siRNA targeting Ret, targeting sequence CCGCTGGTGGACTGTAATAAT (Qiagen) (target sequence only, siRNA duplex strands not listed, further chemistry not given here) | prevents | prevents | reduction in signal | reduction in signal | reduction in Ret mRNA | – | – | – | – | – | – | – | –
2 | siRet2: siRNA targeting Ret, TAGGCTGGTTCTCAACCGGAA (Qiagen) (target sequence only, siRNA duplex strands not listed, further chemistry not given here) | prevents | prevents | – | – | – | – | – | – | – | – | – | – | –
3 | B1 | – | – | – | – | – | increased phosphorylation | increased phosphorylation | increased phosphorylation | increased phosphorylation | significantly increased the number of colonies in a concentration-dependent manner | significantly increased the number of colonies in a concentration-dependent manner | significantly enhances | significantly enhances
